Laboratory results: the supplement of paper PMC7877785
± gives the uncertainty stated by the source.

Experiment: self-splicing fitness, log relative to wild type (ln ratio); higher = more splicing; Tetrahymena group I intron in knt gene, E. coli kanamycin selection, DiMSum; sequences stand for … in CUCUCU…GGAGGGAAAAGUUAUCAGGCAUGCACCUGGUAGCUAGUCUUUAAACCAAUAGAUUGCAUCGGUUUAAAAGGCAAGACCGUCAAAUUGCGGGAAAGGGGUCAACAGCCGUUCAGUACCAAGUCUCAGGGGAAACUUUGAGAUGGCCUUGCAAAGGGUAUGGUAAUAAGCUGACGGACAUGGUCCUAACCACGCAGCCAAGUCCUAAGUCAACAGAUCUUCUGUUGAUAUGGAUGCAGUUCACAGACUAAAUGUCGGUCGGGGAAGAUGUAUUCUUCUCAUAAGAUAUAGUCGGACCUCUCCUUAAUGGGAGCUAGCGGAUGAAGUGAUGCAACACUGGAGCCGCUGGGAACUAAUUUGUAUGCGAAAGUAUAUUGAUUAGUUUUGGAGUACUCGUGGUCG
Outline: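 Colonies from six replicate transformations of E. coli BL21(DE3) were pooled and amplicon-sequenced on an Illumina HiSeq 2500. The library placed an intron with all eight P1ex-region nucleotides randomised inside the knt kanamycin-resistance gene on pET-22b(+), and cells grew overnight at 37°C or 30°C on LB agar with or without 25 μg/mL kanamycin (plus 100 μg/mL carbenicillin, 50 μM IPTG, 0.2% rhamnose). Fitness is the DiMSum error-weighted combination of wild-type-normalised replicate fold changes, kanamycin versus none.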

Sequence | self-splicing fitness (ln) (30 °C) | self-splicing fitness (ln) (37 °C)
CACUAGCAAUAUUACGAGAC | -3.77 ± 0.46 | 
GGCAAGCAAUAUUACGAGUA | -1.52 ± 0.15 | -0.685 ± 0.13
AGGUAGCAAUAUUACGAGCG | -0.808 ± 0.014 | -0.435 ± 0.033
UAGAAGCAAUAUUACGAGUG | -0.527 ± 0.048 | -0.505 ± 0.071
AUUAAGCAAUAUUACGAAGG | -3.82 ± 0.4 | -2.5 ± 0.44
UGGCAGCAAUAUUACGCUUU | -1.24 ± 0.076 | -0.763 ± 0.1
UCGAAGCAAUAUUACGUGCC | -2.86 ± 0.42 | 
UUCCAGCAAUAUUACGGGGC | -3.09 ± 0.32 | -2.82 ± 0.34
UAGGAGCAAUAUUACGUCCG | -0.262 ± 0.28 | 1.13 ± 0.28
AGGGAGCAAUAUUACGGAAC | -3.01 ± 0.38 | -2.68 ± 0.41
CUUUAGCAAUAUUACGCUGU | -2.75 ± 0.25 | -2.35 ± 0.37
CAUUAGCAAUAUUACGACUA | -1.75 ± 0.49 | 
UUAAAGCAAUAUUACGGUCU | -0.805 ± 0.074 | -0.3 ± 0.098
ACCCAGCAAUAUUACGUCAC | -3.29 ± 0.14 | -2.18 ± 0.15
AGUCAGCAAUAUUACGAUAG | -1.12 ± 0.14 | -2.32 ± 0.23
CAAUAGCAAUAUUACGUUCA | -3.43 ± 0.25 | -2.59 ± 0.24
GGGCAGCAAUAUUACGUGGC | -3.12 ± 0.25 | -2.21 ± 0.26
GUGAAGCAAUAUUACGUUGU | -2.68 ± 0.17 | -1.63 ± 0.15
UCCGAGCAAUAUUACGCCUU | -2.35 ± 0.35 | 
GAACAGCAAUAUUACGGACU | -1.28 ± 0.085 | -0.212 ± 0.097
UACUAGCAAUAUUACGCUCC | -2.42 ± 0.23 | -1.21 ± 0.23
UACCAGCAAUAUUACGGAUA | -1.12 ± 0.077 | -0.394 ± 0.078
UGGCAGCAAUAUUACGGUUC | -2.14 ± 0.2 | -0.624 ± 0.19
AAAGAGCAAUAUUACGUUGG | -3.59 ± 0.22 | -2.4 ± 0.25
AGGGAGCAAUAUUACGUUCG | -3.18 ± 0.22 | -1.96 ± 0.23
GCUCAGCAAUAUUACGACUU | 0.064 ± 0.085 | -0.0421 ± 0.078

Sequence | self-splicing fitness (ln) (30 °C) | self-splicing fitness (ln) (37 °C)
GGUCAGCAAUAUUACGCGCA | -0.219 ± 0.13 | -0.27 ± 0.12
UGAAAGCAAUAUUACGAUUG | -0.872 ± 0.11 | -0.573 ± 0.14
ACGCAGCAAUAUUACGCGUU | -3.56 ± 0.14 | -2.42 ± 0.18
UGCCAGCAAUAUUACGUACC | -3.09 ± 0.22 | -1.98 ± 0.21
CGGCAGCAAUAUUACGAGGU | -3.26 ± 0.19 | -1.83 ± 0.15
GCCAAGCAAUAUUACGCCUC | -1.32 ± 0.1 | -0.316 ± 0.1
GGCCAGCAAUAUUACGGUCU | -2.82 ± 0.15 | -2.78 ± 0.3
CUUUAGCAAUAUUACGUUAG | -2.49 ± 0.18 | -2.32 ± 0.26
CGUAAGCAAUAUUACGUAUU |  | -0.991 ± 0.15
CCCAAGCAAUAUUACGAGCG | -2.62 ± 0.12 | -2 ± 0.13
CAUCAGCAAUAUUACGUAUC | -1.9 ± 0.092 | -1.05 ± 0.098
CCUGAGCAAUAUUACGUAAG | -3.03 ± 0.19 | -1.6 ± 0.12
AGGUAGCAAUAUUACGUCCG | -0.127 ± 0.017 | 0.055 ± 0.036
GCCGAGCAAUAUUACGACGC | -2.86 ± 0.23 | -1.08 ± 0.21
AAUAAGCAAUAUUACGGCAG | -0.454 ± 0.11 | -0.547 ± 0.16
UGACAGCAAUAUUACGCGAG | -2.36 ± 0.11 | -2.06 ± 0.077
AAGGAGCAAUAUUACGAUUA |  | -1.96 ± 0.28
UGAGAGCAAUAUUACGAGAC | -4.44 ± 0.46 | -2.59 ± 0.29
UAGCAGCAAUAUUACGUGCG | -0.801 ± 0.076 | 0.26 ± 0.081
CGCGAGCAAUAUUACGUUUC | -4.02 ± 0.27 | -2.06 ± 0.25
GAGUAGCAAUAUUACGGUCU | -1.24 ± 0.15 | -1.22 ± 0.17
CUUAAGCAAUAUUACGGUAC | -3.99 ± 0.36 | -3.27 ± 0.32
GGGUAGCAAUAUUACGGGCC | -2.03 ± 0.38 | 
UGAUAGCAAUAUUACGAUAG | -0.826 ± 0.28 | -0.505 ± 0.32
UCCUAGCAAUAUUACGCAGA | -1.87 ± 0.2 | -0.401 ± 0.15
GCAUAGCAAUAUUACGUAUC | -3.24 ± 0.21 | -2.49 ± 0.22

Sequence | self-splicing fitness (ln) (30 °C) | self-splicing fitness (ln) (37 °C)
CCCCAGCAAUAUUACGACUC | -2.97 ± 0.12 | -2.11 ± 0.21
ACAUAGCAAUAUUACGCGGA | -2.07 ± 0.14 | -0.505 ± 0.1
GGAAAGCAAUAUUACGAACC | -3.32 ± 0.33 | -1.2 ± 0.19
AGAUAGCAAUAUUACGUUAC | -2.05 ± 0.48 | 
GGCAAGCAAUAUUACGUUUC | -0.714 ± 0.1 | -0.0706 ± 0.14
GAGUAGCAAUAUUACGUCUA | -0.203 ± 0.099 | -0.00603 ± 0.14
AGUAAGCAAUAUUACGACCC | -1.01 ± 0.47 | -0.157 ± 0.35
CGCAAGCAAUAUUACGGGUA | -1.68 ± 0.086 | -0.81 ± 0.09
AUCUAGCAAUAUUACGUAUC | -3.29 ± 0.24 | -1.74 ± 0.39
CUUAAGCAAUAUUACGGUGG | -1.7 ± 0.092 | -0.937 ± 0.1
AGGUAGCAAUAUUACGCUCU | -2.37 ± 0.024 | -1.45 ± 0.038
UGAAAGCAAUAUUACGGAUU | -1.99 ± 0.17 | -1.09 ± 0.18
UAUGAGCAAUAUUACGCAUG | -2.53 ± 0.11 | -1.76 ± 0.15
UUUUAGCAAUAUUACGUGAG | -0.331 ± 0.12 | -0.445 ± 0.22
UAAGAGCAAUAUUACGUCCC | -3.99 ± 0.42 | 
ACUAAGCAAUAUUACGGAAA | -2.78 ± 0.37 | -1.7 ± 0.23
GCAUAGCAAUAUUACGUGUC | -3.89 ± 0.2 | -1.96 ± 0.2
AUUUAGCAAUAUUACGUGUU | -1.73 ± 0.14 | 0.39 ± 0.14
GCAGAGCAAUAUUACGCACC | -2.11 ± 0.45 | -1.17 ± 0.48
CUAGAGCAAUAUUACGAUAU | -3.18 ± 0.27 | -2.09 ± 0.25
CCACAGCAAUAUUACGCGUA | -2.81 ± 0.18 | -2.41 ± 0.2
CUACAGCAAUAUUACGCGAG | -2.9 ± 0.098 | -1.74 ± 0.1
AGAUAGCAAUAUUACGUAAG | -1.31 ± 0.065 | -1.44 ± 0.088
UCUAAGCAAUAUUACGACAG | -1.58 ± 0.1 | -0.799 ± 0.15
UCUGAGCAAUAUUACGUGCG | -3 ± 0.1 | -1.34 ± 0.09
GCAUAGCAAUAUUACGAGGA | -2.47 ± 0.32 | -2.21 ± 0.22
